# According to the DeepSol protein solubility set:
# Assay: soluble on expression in E. coli; label from the status in PepcDB or PDB records
row,Sequence,soluble on expression in E. coli
1,SSPATPVPPDSILESPFEEMALVRGGWLWRQSSILRRWKRNWFALWLDGTLGYYHDETAQDEEDRVVIHFNVRDIKVGQECQDVQPPEGRSRDGLLTVNLREGSRLHLCAETRDDAIAWKTALMEANSTPAPAGATVPPRSRRVCPKVRCTTLSWNPCKVERRIWVRVYSPYQDYYEVVPPNAHEATYVRSYYGPPYAGPGVTHVIVREDPCYSSGAPLAMGMLAGAATGAALGSLMWSPCWF,not soluble
2,MDPARECEGKGACELKSNKRFADKIMPHLLNLYGSSAKANDFDMYAPNASFEDPLTHAQGVKQIKSAFYSLPKVFGESKIVEYHIQESETSPGKKEILIDNKQHYKIMGRNIDMISLIKLYVEDGKIVRHEDWWDKKPLRNRDTVSFPLVGRVMEMGRRGLMLATHAMMGFGKDPDSQ,soluble
3,MFSKLAHLQRFAVLSRGVHSSVASATSVATKKTVQGPPTSDDIFEREYKYGAHNYHPLPVALERGKGIYLWDVEGRKYFDFLSSISAVNQGHCHPKIVNALKSQVDKLTLTSRAFYNNVLGEYEEYITKLFNYHKVLPMNTGVEAGETACKLARKWGYTVKGIQKYKAKIVFAAGNFWGRTLSAISSSTDPTSYDGFGPFMPGFDIIPYNDLPALERALQDPNVAAFMVEPIQGEAGVVVPDPGYLMGVRELCTRHQVLFIADEIQTGLARTGRWLAVDYENVRPDIVLLGKALSGGLYPVSAVLCDDDIMLTIKPGEHGSTYGGNPLGCRVAIAALEVLEEENLAENADKLGIILRNELMKLPSDVVTAVRGKGLLNAIVIKETKDWDAWKVCLRLRDNGLLAKPTHGDIIRFAPPLVIKEDELRESIEIINKTILSF,soluble
4,GSHMLETEDVVRARDAHLRSILDTVPDATVVSATDGTIVSFNAAAVRQFGYAEEEVIGQNLRILMPEPYRHEHDGYLQRYMATGEKRIIGIDRVVSGQRKDGSTFPMKLAVGEMRSGGERFFTGFIRDLT,soluble
5,LFAAIVDNLSDGIYVLQDDRVVYLNERFAQLFGHGDAGSLLMRELDDILPHGEGKEIVGRIHAELLAGEPSSVAWGQPFAHMDGTPVWLEMEARRIRLNGRPAILGVCHDRT,not soluble
6,MRVFKTKLIRLQLTAEELDALTADFISYKRDGVLPDIFGRDALYDDSFTWPLIKFERVAHIHLANENNPFPPQLRQFSRTNDEAHLVYCQGAFDEQAWLLIAILKPEPHKLARDNNQMHKIGKMAEAFRMRF,soluble
7,MSLAYQSEYALENEMMNQLEQLGYERVTIRDNKQLLDNFRTILNERHADKLEGNPLTDKEFQRLLTMIDGKSIFESARILRDKLPLRRDDESEIYLSFLDTKSWCKNKFQVTNQVSVEDTYKARYDVTILINGLPLVQVELKRRGIDINEAFNQVKRYRKQNYTGLFRYIQMFIISNGVETRYFSNNDSELLKSHMFYWSDKQNNRINTLQSFAESFMRPCQLAKMISEGHHHHHH,soluble
8,MKVLVVGSGGREHALLWKAAQSPRVKRLYAAPGNAGMEALAELVPWNGDVEALADWALAEGIDLTLVGPEAPLVEGIADAFQARGLLLFGPTQKAAMIEGSKAFAKGLMERYGIPTARYRVFREPLEALAYLEEVGVPVVVKDSGLAAGKGVTVAFDLHQAKQAVANILNRAEGGEVVVEEYLEGEEATVLALTDGETILPLLPSQDHKRLLDGDQGPMTGGMGAVAPYPMDEATLRRVEEEILGPLVRGLRAEGVVYRGVVYAGLMLTREGPKVLEFNARFGDPEAQALLPLLENDLVELALRVAEGRLAGTRLSWKEGAAACVVLAAPGYPESPRKGIPLHVPEPPEGVLVFHAGTRREGGRLVSAGGRVLNVVGLGRDLKEALERAYAYIPQVGFPGAVYRRDIGRRALARLST,soluble
9,MPTLRFRQKVVHKLNNSGIIARPKTVIHPIKMKTTLIAAAEVDRLETWQRYTSNMCHGCHSTCCTLPVEVKIKDLIRIGVVDEFEKDEPPKNVAKRLQKEGIIERFNQKSGIFTLTRMSNDDCMYLDRKSRLCTIYDKRPDTCRNHPKVGPRPGYCAYKPKVVGRLEHHHHHH,not soluble
10,MGSDKIHHHHHHMRLNELYSGKNAFIFQGVGIKYQKFLTLLDESQRELLKEYCSIVYKKIKLDLWGYLTRSLSGEYDDKFSDWVSIYTIDCVVYNTYIEDGIKPSVLLGYSMGLITALACGKAISFEEGLELLSMSYNYPKYTSRKDEGMGLVTGMTCSDIKKIIDKNELGDYAYIASENNEYCILVSGMKNRVDKLLSIALTEGALSAKDIDSPYAFHSKYALIGIEEYEKLVSRLCVCNLKIPIISSYDQRIIVDSCELKKELVKNVWGEMKWMASVEKAININNYNFFEVSLIDSISRFSRMINSNCKFFTYKSFMKIKNVQVQN,not soluble
11,MDDQIKQIAERLRGLRDVLELTAEDIARDCEISAEEYRLAETGDYDISVSMLQKIARKYGIALDALMFGEEPKMSSYFLTRAGKGTSIERTKAYKYQSLAAGFMNRNADPFIVTVEPKPDIEPIHYNSHSGQEFNLVLEGRMMISIDGKDLILNEGDSLYFNSKLPHGMKALDGKTVRFLAVIM,not soluble
12,AVGNATQPLLVVEDSDEDFSTFQRLLQREGVVNPIYRCITGDQALDFLYQTGSYCNPDIAPRPAVILLDLNLPGTDGREVLQEIKQDEVLKKIPVVIMTTSSNPKDIEICYSYSISSYIVKPLEIDRLTETVQTFIKYWLDIVVLPEMG,soluble
13,MAHHHHHHSLEYNLTTTDVVMENVTAFWEEGFSKLFEKAKENNNNRKISNCDTSLFFSNLLLGTPVLKDISFKIERGQLLAVAGSTGAGKTSLLMMIMGELEPSEGKIKHSGRISFCSQYSWIMPGTIKDNIIFGVSYDEYRYRSVIKACQLEEDISKFSEKDNIVLGEGGITLSGGQRARISLARAVYKDADLYLLDSPFGYLDVLTEKEIFESCVCKLMANKTRILVTSKMEHLKKADKILILHEGSVYFYGTFSELQNQRPDFSSKLMGCDTFDQFTAERRNSIITETLRRFSLEGDTSV,soluble
14,MSGSVPFIRRLAVIGVGLIGGSLARALRTAGAVGEIIGIDRDEANLRQAAELGVVDRAAATVAEGVAGADMVFLSVPVRAMAGVVREIAPHLAAGCIVTDGGSVKAEVVAACDPLMPAGTCFVGGHPIAGTEHSGVGASFATLYQGKRCILTPAATTDRDALATVARMWEAAGSEVVLMDPEKHDRVVAAISHLPHMVAYALVNAVEGYDRFEESILRYSAGGFRDFTRIASSDPAMWRDIALMNREGVLEMMDHFAAYFGQLRSLVAAGDAEGLERFFRDSKESRDAILLEHHHHHH,soluble
15,MRILKIYENKGVYKVVIGEPFPPIEFPLEQKISSNKSLSELGLTIVQQGNKVIVEKSLDLKEHIIGLGEKAFELDRKRKRYVMYNVDAGAYKKYQDPLYVSIPLFISVKDGVATGYFFNSASKVIFDVGLEEYDKVIVTIPEDSVEFYVIEGPRIEDVLEKYTELTGKPFLPPMWAFGYMISRYSYYPQDKVVELVDIMQKEGFRVAGVFLDIHYMDSYKLFTWHPYRFPEPKKLIDELHKRNVKLITIVDHGIRVDQNYSPFLSGMGKFCEIESGELFVGKMWPGTTVYPDFFREDTREWWAGLISEWLSQGVDGIWLDMNEPTDFSRAIEIRDVLSSLPVQFRDDRLVTTFPDNVVHYLRGKRVKHEKVRNAYPLYEAMATFKGFRTSHRNEIFILSRAGYAGIQRYAFIWTGDNTPSWDDLKLQLQLVLGLSISGVPFVGCDIGGFQGRNFAEIDNSMDLLVKYYALALFFPFYRSHKATDGIDTEPVFLPDYYKEKVKEIVELRYKFLPYIYSLALEASEKGHPVIRPLFYEFQDDDDMYRIEDEYMVGKYLLYAPIVSKEESRLVTLPRGKWYNYWNGEIINGKSVVKSTHELPIYLREGSIIPLEGDELIVYGETSFKRYDNAEITSSSNEIKFSREIYVSKLTITSEKPVSKIIVDDSKEIQVEKTMQNTYVAKINQKIRGKINLE,soluble
16,MGSDKIHHHHHHMKRTTKSIQAEIAKGAFRPHTALSTMALAYYQQETTSFAKNMFPVCPVQLSSDNYYVFDKEDLLRDNWNRKPAYGSVDPAVISEHTENYACHVDQMMMGIDNIRQTDLNRRQGPHTKDPRQQRTKVIATQANIHQDAEFSKSFMRKGVWKNEATGTDSVSVTSGQFIKFSNGNSDPIAFFQNKMTEINEETGRTPNRLGLGVNVYNALKEHPAILERVKYGGSTPNPAKVNLNVLAQLFEIDRIVLDRTVQNKAGLGQNADMGYIGDPNSFLLAYATDTPSVEEPSAGYIFTWDMLENGILLPILNYPGAPGTHSELVEGLMAYDMKKTADDLAFFGCDAV,not soluble
17,MSLQPVAKTEQPEGGILYDFGKETFGFITLKNLSGKGKIDLYYGESPEEAKDKAYCETLDKLLLEPGQITDLAIRSTSPLHHSDNEYTLENSKAFRYVYITHEPEVQIGEVSMQYEYLPEEYRGNFRCNDEELNCIWEVGAYTMHLTTREFFIDGIKRDRWVWSGDAIQSYLMNYYLFFDSESVKRTIWLLRGKDPVTSHSNTIMDYTFYWFLSVYDYYMYSGDRHFVNQLYPRMQTMMDYVLGRTNKNGMVEGMSGDWVFVDWADGYLDKKGELSFEQVLFCRSLETMALCADLVGDKDGQQKYEKLASALKAKLEPTFWNNQKQAFVHNCVDGRQSDAVTRYANMFSVFFDYLNADKQQAIKQSVLLNDEILKITTPYMRFYELEALCALGEQETVMKEMKAYWGGMLKAGATSFWEKYNPEESGTQHLAMYGRPYGKSLCHAWGASPIYLLGKYYLGVKPTKEGYKEFAVSPVLGGLKWMEGTVPTPNGDIHVYMDNKTIKVKATEGKGYLTIQSRRQPKANMGTVEKVSEGVWRLWIDSPEERIVTYRLEGHHHHHH,soluble
18,MAHHHHHHMLCLVRAAEPKPYTALSPEALYEAVQPHDHTLRPSPFIAHQALMDFYKACDGYYGVNREEVDVQQLTSFEHKKTHGGASSGNNSGSNSGATLSSLLSGSASAAPSSSLSAAAGAPPLPPLPSPDDPNLAEKLNDYRIAQLRRNAQHVDNTVYHAHNSSNGGSNSNVANAGSSGVCHFYRTPEGCQRGAACPFTHLDKHGQPVNRVAKS,soluble
19,VKIELTVNGLKIQAQYQNEEIENVHKPLLHMLAALQTVNPQRRTVVFLCAPPGTGKSTLTTFWEYLAQQDPELPAIQTLPMDGFHHYNSWLDAHQLRPFKGAPETFDVAKLTENLRQVVEGDCTWPQYDRQKHDPVEDALHVTAPLVIVEGNWLLLDDEKWLELASFCDFSIFIHAPAQILRERLISRKIAGGLTRQVAEAFYARTDGPNVERVLMNSRQANLIVEMTEEGRYHFTS,soluble
20,MNYYGTSMWASDNNTASNSDSSLNLLGILLLASENNKLINNTVLTNLYGVNLMAESTGIGDKTGPSENILASNIISYNLGTGILFDESYGNLIYNNSFDNIWNVEDESLNTWNSSEIGNYWSDYEGEDADGDGVGDTPYLINSHTGSMDYLPVTRSSDFPELEHHHHHH,not soluble
21,MNMFNRKAKQEVTKKPEASNGSKNSKSTFVNSKSPNQKRREVKKSDSDTESSHKNTRRTKPVPVPAASSNSKGSNEKHKRKSVQQVVKKVVNHIPFSPSKQPKSTSTPPVSEGNRKRLAMADVSINQLESEMDSFVKKIEPNERRATQYIHSNSLSRSNEAVPPGNVKTSQQKADHHLIRTTRSLIGLDGETEAVYSKATKASPDKGKLTADSPSSRRTSKSLEENSSETTNDSISLADDEETREAYRKLFKDFAMSSQKMTLDDFKQEFSNLPGDPPSDLCTVFNHPVNNKKNRYSNIPCLDISRVQLKFKMPNKNSTDYIHANYIRSPFLKRGYILTQGPKKETRADFWRMIWQENTTAIVMLCQFLETNREKCAEYFPRNAHCCLQFDKFSVNYEDSTVNKSLVTTRLNLSYEGETRLITHWLWKEWPDWQVPESSEVMLKILRKIRARSTPPVIHCSAGVGRSGTLMAVEIALQSIHTHFTLPDIKQIVSHLRVTGRAASVQTLQQYMLIWKVLLDFGVAYKQITEELAEKFNSTYRRSLRSINGT,not soluble
